Data reported in patent WO1989007452A1.

Target: Campath-1 antigen (partially purified, obtained from a glycolipid extract from human spleen) (human) (UniProt P31358)
Experiment: direct binding ELISA on partially purified Campath-1 antigen coated on microtitre wells; detected with biotin-labelled anti-rat IgG2b; antibody concentration at 50% binding

EC50: 1.01 µg/mL
Substance: RaVHCAMP-RaIgG2B (cloned rat heavy chain variable domain of YTH 34.5HL on rat IgG2b constant domains, with rat kappa light chain) (from UniProt P20761 1-333) (antibody)
